Measurements: paper PMC9953004, “Scandium-44 Radiolabeled Peptide and Peptidomimetic Conjugates Targeting Neuropilin-1 Co-Receptor as Potential Tools for Cancer Diagnosis and Anti-Angiogenic Therapy” (Biomedicines, 2023)

Molecular target: Recombinant human NRP-1 (neuropilin-1 co-receptor) (human) (UniProt O14786)
Assay: ELISA; competitive; recombinant human NRP-1 coated on a 96-well plate (200 ng/well, overnight, 4 °C), blocked with 0.5% BSA in PBS; 50 µL compound in PBS (100, 50, 25, 12.5, 6.75 µM) plus 50 µL (400 ng/mL) human (bt)-VEGF-A165 in PBS with 4 µg/mL heparin; 2 h at room temperature; streptavidin-HRP, chemiluminescence; IC50 by nonlinear regression, mean ± SD of three experiments

Chain of Recombinant human NRP-1 (neuropilin-1 co-receptor) (human) (O14786 22-856): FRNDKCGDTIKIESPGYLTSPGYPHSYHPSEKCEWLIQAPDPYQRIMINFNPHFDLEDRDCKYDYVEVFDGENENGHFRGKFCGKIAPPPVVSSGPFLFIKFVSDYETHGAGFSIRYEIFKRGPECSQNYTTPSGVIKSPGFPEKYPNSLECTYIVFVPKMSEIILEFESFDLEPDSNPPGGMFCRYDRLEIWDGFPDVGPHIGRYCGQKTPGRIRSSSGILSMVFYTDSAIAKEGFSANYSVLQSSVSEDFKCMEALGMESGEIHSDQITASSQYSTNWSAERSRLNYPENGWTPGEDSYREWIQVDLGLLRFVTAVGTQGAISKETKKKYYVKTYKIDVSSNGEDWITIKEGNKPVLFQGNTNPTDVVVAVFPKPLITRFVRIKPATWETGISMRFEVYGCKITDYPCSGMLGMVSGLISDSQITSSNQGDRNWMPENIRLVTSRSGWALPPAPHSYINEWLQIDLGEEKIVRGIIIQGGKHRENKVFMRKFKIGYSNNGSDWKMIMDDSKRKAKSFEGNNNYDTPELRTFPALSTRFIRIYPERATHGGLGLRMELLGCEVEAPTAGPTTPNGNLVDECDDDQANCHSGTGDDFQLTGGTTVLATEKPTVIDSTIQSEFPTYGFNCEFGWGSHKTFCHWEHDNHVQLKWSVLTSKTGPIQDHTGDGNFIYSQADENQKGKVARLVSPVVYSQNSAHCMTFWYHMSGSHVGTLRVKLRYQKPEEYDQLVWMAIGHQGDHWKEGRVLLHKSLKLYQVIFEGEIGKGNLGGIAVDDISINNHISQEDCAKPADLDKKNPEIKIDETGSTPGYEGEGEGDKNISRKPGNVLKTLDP

IC50 [µM] | Substance
> 100 | ^DR7A-^DLys(DOTA-Ga) (peptide)
> 100 | ^DR7A-^DLys(DOTA-Sc) (peptide)
